According to patent publication US7470669B2, “Isolated polypeptide comprising a leptin fragment” (Serono Genetics Institute, S.A., priority 1999, dated 2008):

Columns and labels:
LSR β = molecular target: T1, LSR β (Homo sapiens, UniProt Q86X29); test: 125I-leptin binding in CHO-K1 cells transiently transfected with LSR β; assay type: cell-based; conditions: transient transfection with LSR β plasmid; 10 ng/mL 125I-leptin
T1 construct: The full-length LSR α, α′, and β clones were reconstructed in pTracer-CMV2 vector; expressed in transfected cells; host or cells: CHO-K1, transient (Fugene), pTracer-CMV2
T1 sequence (Q86X29 1-581 isoform Q86X29-5): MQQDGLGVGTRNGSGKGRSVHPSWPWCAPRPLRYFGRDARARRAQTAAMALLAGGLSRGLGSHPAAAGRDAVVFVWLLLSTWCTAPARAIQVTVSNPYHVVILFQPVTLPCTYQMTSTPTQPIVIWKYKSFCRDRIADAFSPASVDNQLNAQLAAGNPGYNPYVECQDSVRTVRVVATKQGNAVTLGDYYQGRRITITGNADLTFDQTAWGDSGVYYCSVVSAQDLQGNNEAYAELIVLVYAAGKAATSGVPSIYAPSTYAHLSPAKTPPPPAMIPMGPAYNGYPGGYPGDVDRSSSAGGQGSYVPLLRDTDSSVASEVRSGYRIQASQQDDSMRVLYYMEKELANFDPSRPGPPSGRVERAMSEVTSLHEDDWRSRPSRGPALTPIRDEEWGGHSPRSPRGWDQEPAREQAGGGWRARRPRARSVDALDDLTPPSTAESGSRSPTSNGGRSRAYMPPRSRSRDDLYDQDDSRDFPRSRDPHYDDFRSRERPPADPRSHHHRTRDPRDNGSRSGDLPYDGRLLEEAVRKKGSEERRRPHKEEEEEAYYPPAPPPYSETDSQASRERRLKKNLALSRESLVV
Description: FIGS. 3A, 3B, 3C, and 3D show the effect of LSR subunit transfection on leptin binding and degradation in CHO-K1 cells. For FIG. 3A, CHO-K1 cells were transfected with increasing concentrations of the α, (□), α′ (▪) or β (◯) LSR plasmid, or vector alone (●) using Fugene transfection reagent. After 48 h, the cells were washed once in PBS and incubated at 37° C. for 2 h with 10 ng/mL of ^125I-leptin in DMEM containing 0.2% (w/v) BSA, 2 mM CaCl2 and 5 mM HEPES, pH 7.4 (Buffer A). The monolayers were washed and lysed with 0.1 N NaOH containing 0.24 mM EDTA, and the lysates were counted. The results are shown as the amount of cell-associated ^125I-leptin. For FIG. 3B, lysates were prepared from CHO-K1 wild type, stable transfectants of vector or LSR α′ subunit, and PLC, and separated on a 10% SDS-polyacrylamide gel under denaturing and reduced conditions. After transfer to nitrocellulose, Western blots were performed using anti-LSR 170 antibody (can also be done with the human equivalent, 93A). […] For FIGS. 3C and 3D, confluent monolayers of stable-transfected cell lines expressing LSR α′ subunit (▪) or vector alone (●) were washed once in PBS and incubated at 37° C. for 2 h with increasing concentrations of ^125I-leptin in Buffer A. The amount of cell-associated (FIG. 3C) and degraded (FIG. 3D) ^125I-leptin was then measured as described herein. […]

LSR = test: Ligand blot of 125I-leptin on LSR complexes immunoprecipitated from PLC cells; assay type: binding, human; conditions: PLC cell lysates; complexes of 200 and 230 kDa
Description: FIGS. 4A, 4B, 4C, and 4D show LSR binding and degradation of ^125I-leptin in human hepatocytes, and the effect of 81B anti-LSR antibody. For FIG. 4A, PLC cells were lysed (3-T175 cm^2 flasks per condition) and immunoprecipitated with irrelevant or 81B anti-serum. The immunoprecipitates were washed, were separated on 10% SDS-polyacrylamide gels under nondenaturing conditions, and were transferred to nitrocellulose. Ligand blots using ^125I-leptin were then performed as described in FIG. 2. For FIG. 4B, confluent monolayers of PLC cells were incubated at 37° C. for 30 min with 100 nM insulin, were washed, and then were incubated for 30 min at room temperature in the presence of anti-LSR peptide 81B antibody (▪), or irrelevant (□) IgG. After this, the cells were incubated at 37° C. for 2 h with increasing concentrations of ^125I-leptin in Buffer A. The monolayers were washed, and the amount of ^125I-leptin degraded was determined as described herein. Results are shown as the mean of duplicate (irrelevant IgG) or triplicate (anti-LSR peptide IgG) determinations. FIG. 4C is a schematic diagram of the motifs found from the predicted protein sequence of LSR α cDNA. […] After washing and incubation with goat-anti-rabbit FITC-conjugated antibody, the cells were fixed and analyzed by flow cytometry using a FACSCalibur (Becton Dickinson). […]

## leptin: plasma protein of 16 kDa produced by adipocytes; recombinant human or mouse leptin, species depends on the experiment
LSR β
  Leptin binding to CHO-K1 cells: remained at levels similar to those seen with the vector alone
LSR
  binding of 125I-leptin to multimeric complexes precipitated by the 81B antibody: binds directly
